Drawing on the supplement of paper PMC12042874, this text covers amyloid nucleation score for 131 substances.

The data set in a line: amyloid nucleation score (Sup35N fusion, yeast selection) (log enrichment); library NNK3; higher = more nucleation; inactive = no reads after selection. In short, it runs like this: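 Nucleation score: DiMSum log enrichment of output over input reads, centred on the mode score of non-aggregating sequences. Only sequences with at least 100 input reads were kept. Reads came from Illumina sequencing of plasmid inserts before and after 7 days of growth at 30°C without adenine and uracil, in psi-negative yeast expressing Sup35N fused to peptides of 20 random codons after 24 hours of induction with 100 μM copper sulfate.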

± gives the uncertainty stated by the source.

Turning to SYNDSLCLDVQTIYPLHSPS, the amyloid nucleation score result was “inactive”.
Regarding INQYRPAPIQEAPLF, the amyloid nucleation score result is “inactive”.
As to SRDTVRVLNLLGRKALMRGQ, the amyloid nucleation score entry was “inactive”.
Turning to VQVIRFFWIMGLTGWTRELP, the amyloid nucleation score entry is “inactive”.
For the substance YLAPHMSATVVLDNEFGPES, the amyloid nucleation score entry was “inactive”.
As for GVYMLLDVPYGTASTSAMGS, the amyloid nucleation score entry was “inactive”.
In the case of NRSRNMESVRDSLLSVVNRE it was “inactive”; in that of LTWKFSATCIGVKT, “inactive”.
With FLFFTEAGYM the entry was “inactive”.
VIVARFLFMGTTFHVPDVRP returned an amyloid nucleation score of 1.97 ± 0.075.
In the case of SYHYFGRYCGFR it was “inactive”; in that of LDLNLRVRVLFKFTTGLTFF, “inactive”.
In the case of VVGIKV it was “inactive”.
With SIDHVLWYNIGRVGSCWSLR the figure was -0.188 ± 0.27; with IVEGHLSIIGWYEGNFPHML, 0.145 ± 0.42.
As for VVWLDNKDVLTWHARCLCPM, the amyloid nucleation score result was “inactive”.
In the case of CFDWYFDNDTRFIVGAMLVW it was “inactive”; in that of GRAPYMWC, -0.955 ± 2.4; in that of TSTSIVSYGTWFSGFVLNVS, 2.29 ± 0.076.
In the case of GNEWRWWVLRNLLSCFSIP it was “inactive”.
In the case of ILLWFSTVNWSFANEPGQIL it was “inactive”.
On to LFLLFFSAHGQYIRCAIIVR, for which the amyloid nucleation score entry is “inactive”.
In the case of RDSCFNIDFKEEVVRKVSMA it was 0.827 ± 0.18; in that of RARGDTIK, “inactive”.
With FCSFEVRGCY the figure was 0.346 ± 0.2; with IGVLCALDGISRIAFFSLLL, “inactive”; with ISLSR, “inactive”.
In the case of LYLLSKRFHNLYLLDKVLKY, the amyloid nucleation score result was “inactive”.
In the case of KCLEGLMVVANDWWVKCFTS it was 0.671 ± 0.24; in that of STVYSRHIKTDLTNCCKFFY, -0.657 ± 0.98; in that of VGELIGLGSLWGMEINY, “inactive”.
Substance FGRYPMYIASLITNSKVFGC returned an amyloid nucleation score of -0.709 ± 0.41.
In the case of SLLCKFIVRNPNSSLIRSAS it was “inactive”; in that of IKIHYF, “inactive”.
In the case of SEQFSPCLVGQLRMDYSWI it was “inactive”.
In the case of SISLITFCRMCDAWLWRFGV it was “inactive”; in that of ILLIWCIFTSAKFQQTSFMT, “inactive”.
As to TKADEHYESIYTLCCHFVSP, the amyloid nucleation score result is “inactive”.
In the case of RSVTNGQSCLRTVGILSFLA it was “inactive”; in that of NHCNTCSWFLQTS, 1.45 ± 0.14.
On to RFEYMGNVMES, for which the amyloid nucleation score entry was “inactive”.
LTYHLFYMVADACVIWYDCS showed an amyloid nucleation score of 0.833 ± 0.32.
Take TFFTGKIRNKAVFEDSSYCK: the amyloid nucleation score result was “inactive”.
In the case of SIMFGNLSMAKVKYMNFL it was 0.862 ± 0.12.
As to GYLRNMVWRMSQYIREVCPR, the amyloid nucleation score entry was “inactive”.
With FSWFHRRSYSVVTSLCLMGR the entry was “inactive”; with VYKIMVTFPSISMPSRSSGL, “inactive”; with SFYGSIQGQNLLTLLNMKTR, “inactive”.
The substance FHWYFLCLAFLG yielded an amyloid nucleation score of 0.398 ± 0.3.
In the case of NKLFEDSQAETS it was “inactive”.
In the case of YFAWNRKVNYTRS, the amyloid nucleation score result was “inactive”.
In the case of CVILYLTGKSFIVLSIVVAE it was “inactive”; in that of DGRRSMATCWIHSNCPWRAS, “inactive”.
With YKWSLTTRRTVRHLRED the entry was “inactive”; with SVNSGVMIAEPDLRWCGSAT, “inactive”; with LLTSLDPDYSSPWCYSVDIC, “inactive”.
With WMYKTWHRI the entry was “inactive”; with GSNYSWSLLL, “inactive”.
Consider DVPGIGCEGKALRRLGFLLR, for which the amyloid nucleation score result is “inactive”.
PCSGDSLLVSNTKNRSL: the amyloid nucleation score result was “inactive”.
In the case of DAAQCRSDNYALFELNSAHC it was “inactive”; in that of QPLHCK, “inactive”.
Regarding RKCLMMCDYCITLNM, the amyloid nucleation score amounted to 2.29 ± 0.06.
On to LNFVVYMIGGFCCHHFNVLF, for which the amyloid nucleation score was found to be 1.3 ± 0.1.
For the substance NHDIDALTQTQPTDNSYL, the amyloid nucleation score result is “inactive”.
In the case of DGFLKLEFAFQCFTRLCLAF it was “inactive”; in that of AIYAYTFAKRPSCEQATRVS, “inactive”; in that of VWLFVSSMEYTNGTYQHHMM, “inactive”.
In the case of MEMLVVIRIARRMYDGGCLS it was -0.423 ± 0.45; in that of LFWSNLWRRDMNISVSNYWL, 1.69 ± 0.11.
In the case of HMNDASPGTAKFEIV it was “inactive”; in that of FSSMQDWSFGIYLNSEAPPT, “inactive”.
As for SVQLGIKNVITLRSYVYKTW, the amyloid nucleation score was -0.208 ± 0.6.
With LDTDWLGYSSLP the entry was “inactive”; with RANLPRLFQNDHNSWLDCVA, “inactive”.
With VNLEYYV the entry was “inactive”; with LCLRRGGFVRIGVWVFVFYG, “inactive”; with VLDVVY, “inactive”.
With MCKRGRDCGLLFVSTDDLGD the entry was “inactive”; with MFCSIIKSQTVAFLVGSSFG, 0.145 ± 0.26.
For RSYLSEHSNYGAKSSYYGIF, the amyloid nucleation score entry is “inactive”.
With NISSVVLGGGLRVGARRI the entry was “inactive”; with FLLFFAKWCLY, “inactive”; with MRNTFRTHSKQYHHG, “inactive”.
With RLYQFCFDENSIQLFIYP the figure was 2.35 ± 0.069; with LRRQSVMWDKSYAGTWILES, “inactive”.
With EQYRSTTGLESL the figure was -0.2 ± 0.96; with PVQPTEARNR, “inactive”.
Substance NASMNKYYVRFTFGNPHVLL yielded an amyloid nucleation score of 2.52 ± 0.061.
With GADDVTNRRTVVVSTQALCL the entry was “inactive”.
Turning to CQDHVKNITAIPHSSGMYMS, the amyloid nucleation score entry is “inactive”.
With MSDEDRYNRWFDTGVGVLDR the entry was “inactive”.
In the case of CKPDLMA it was “inactive”; in that of FMGVT, “inactive”; in that of GVSRGLSLPRSLKYRYCCAV, “inactive”.
With LMRTDNSSKNGSASGGGMSG the entry was “inactive”; with YSGMGCFSAWSMW, “inactive”.
On to NHQIVRDDRCYKLLIQAVRM, for which the amyloid nucleation score result is “inactive”.
In the case of VPTMMRVR it was “inactive”; in that of CVSMKRN, 2.07 ± 0.067; in that of GDLGDVPGRWDWNKSWFVNY, “inactive”.
With LVILVVDSRRYDMCLSNRDF the entry was “inactive”; with KMWCNGMAISLHVRRLCQV, “inactive”; with LKLYQAAL, “inactive”.
Turning to DMGRCCSRKLRRRTPYVKGR, the amyloid nucleation score result was “inactive”.
With YCAALGSSY the entry was “inactive”.
VSQYSVLGVAWSELFRTVD displayed an amyloid nucleation score of -0.064 ± 0.26.
Take WGSEFIDTKFA: the amyloid nucleation score result is “inactive”.
In the case of DWNISLNLQDIGRRSLPIFA it was “inactive”; in that of HLGVGG, “inactive”.
With PGRTSYMKVPYCKWSEWPAK the entry was “inactive”; with RYSGANVDNYVN, “inactive”.
In the case of RKEVLYSYRNHLK it was “inactive”; in that of PGRLSYLPHMFKYLLLITYT, “inactive”.
In the case of SQGLYVGPVAPSGTVRRVWM, the amyloid nucleation score result is “inactive”.
Take IIQALVF: the amyloid nucleation score entry was “inactive”.
As for FCRSVLTLKKKLMFYTLRHC, the amyloid nucleation score entry is “inactive”.
With VNFLSDIVNFGCIVWFPPKI the figure was 2.32 ± 0.087.
With YYIIWRFQGIVLKYGTALTF the entry was “inactive”.
Regarding CCHSITFLVNLGMRERKNKV, the amyloid nucleation score result is “inactive”.
With ITLRDVGGHGANLWEGMQFM the entry was “inactive”.
In the case of MGEMRMLVTVT it was “inactive”; in that of VISLRLVLNWNVTGVSLLGW, 0.611 ± 0.16.
As for SYEAF, the amyloid nucleation score entry is “inactive”.
Take FYKGKG: the amyloid nucleation score entry was “inactive”.
As for GIWCYAITLGFRPAGSTWDS, the amyloid nucleation score turned out to be 1.02 ± 0.15.
Consider VRYVSFAEFSWGLRFSVSRR, for which the amyloid nucleation score result is “inactive”.
In the case of ICPSNFWMFCSCYWSMLRNF it was “inactive”; in that of VDNCYDVITSLILSKYVLTL, “inactive”; in that of VFDCYHRTGVMETVCWNVFG, “inactive”.
In the case of GLVCWTG it was “inactive”.
